Each block holds one molecule with its values, some of them ahead of it.
B2: mouse GITR (glucocorticoid-induced TNF receptor) (receptor, UniProt O35714 20-228, looked up)
chain: QPSVVEEPGCGPGKVQNGSGNNTRCCSLYAPGKEDCPKERCICVTPEYHCGDPQCKICKHYPCQPGQRVESQGDIVFGFRCVACAMGTFSAGRDGHCRLWTNCSQFGFLTMFPGNKTHNAVCIPEPLPTEQYGHLTVIFLVMAACIFFLTTVQLGLHIWQLRRQHMCPRETQPFAEVQLSAEDACSFQFPEEERGEQTEEKCHLGGRWP
notes: whole, on cells; endogenous on mouse T cells and HT-2 cells in the functional assays; also called cell-surface GITR

Columns and labels:
[1] = target: mouse GITRL expressed on cells (mouse) (UniProt Q7TS55); experiment: flow cytometry on GITRL-Cos cells, FITC donkey antihuman antibody
[2] = target: B2; experiment: cell-based or functional assay
[3] = target: T1, control mouse IL-21 receptor fused to the FLAG epitope, expressed on Cos cells (mouse, UniProt Q9JHX3 20-529); experiment: cell-cell binding by flow cytometry (PE anti-FLAG / FITC anti-GITR)
T1 construct: whole, on cells; also called IL-21R-Flag-Cos
T1 sequence (Q9JHX3 20-529): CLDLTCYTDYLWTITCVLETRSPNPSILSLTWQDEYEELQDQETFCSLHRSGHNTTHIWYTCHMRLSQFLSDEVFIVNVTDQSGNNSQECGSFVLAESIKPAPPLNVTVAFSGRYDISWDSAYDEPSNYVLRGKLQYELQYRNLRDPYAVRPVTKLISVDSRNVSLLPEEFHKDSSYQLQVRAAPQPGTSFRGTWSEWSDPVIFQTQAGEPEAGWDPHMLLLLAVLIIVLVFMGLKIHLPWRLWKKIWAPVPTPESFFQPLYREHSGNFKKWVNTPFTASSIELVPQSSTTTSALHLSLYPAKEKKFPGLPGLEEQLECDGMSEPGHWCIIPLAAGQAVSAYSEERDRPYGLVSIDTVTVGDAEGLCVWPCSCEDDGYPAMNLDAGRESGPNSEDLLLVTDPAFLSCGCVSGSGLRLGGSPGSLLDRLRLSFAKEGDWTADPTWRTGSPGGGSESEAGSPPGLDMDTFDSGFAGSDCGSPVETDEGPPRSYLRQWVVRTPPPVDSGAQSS
Source text: Cell-cell interaction was detected by flow cytometry using phycoerythrin-labeled anti-Flag antibody (PE-FLAG) and fluorescein isothiocyanate (FITC)-labeled anti-GITR.

- FITC-Ab binding [1]: 7.9%
Molecule: control human IgG (antibody)

- FITC-Ab binding [1]: 28.8%
- fold increase in FITC-Ab binding compared to control HIgG [1]: 3.6 fold
Molecule: recombinant GITR fused to the Fc portion of human IgG (Fc fusion)

- ^3H-thymidine incorporation of CD4^+CD25^+ T cells, fold increase over unmodified YB2/0 cells (˜50,000 cells) [2]: ~15 fold
B1: mouse GITRL expressed on cells (ligand)
chain: MEEMPLRESSPQRAERCKKSWLLCIVALLLMLLCSLGTLIYTSLKPTAIESCMVKFELSSSKWHMTSPKPHCVNTTSDGKLKILQSGTYLIYGQVIPVDKKYIKDNAPFVVQIYKKNDVLQTLMNDFQILPIGGVYELHAGDNIYLKFNSKDHIQKNNTYWGIILMPDLPFIS

Molecule: B2
- binding result [3]: no binding
